Consider one molecule from patent US20240262791A1 (University of California, published 2024).

The target in this experiment is Spike protein on SARS-CoV-2 GFP Reporter Virus Particles (pseudotyped lentivirus), wild-type strain (SARS-CoV-2, UniProt P0DTC2 14-1273). In words: cell-based or functional assay.

B1: Wildtype SR4 nanobody (VHH)
VHH: QVQLVESGGGLVQAGGSLRLSCAASGFPVYSWNMWWYRQAPGKEREWVAAIESHGDSTRYADSVKGRFTISRDNAKNTVYLQMNSLKPEDTAVYYCYVWVGHTYYGQGTQVTVSA
Turning to B1, the “IC50, inhibition of pseudovirus infection of 293T-ACE2 cells” value was 0.55 µM.
